{"source": "paper PMC2910265", "target": "MglA^+ of Thermus thermophilus (Thermus thermophilus)", "test": "fluorescence polarisation", "data": [{"substance": "MglB of Thermus thermophilus (natural protein)", "values": [{"measurement": "fold higher affinity for MglA^+/mGppNHp than for MglA^+/GDP", "value": 60, "unit": "fold"}]}]}
